# Source: publication PMC4780118, “Mechanisms involved in xyloglucan catabolism by the cellulosome-producing bacterium Ruminiclostridium cellulolyticum” (Scientific Reports, 2016)
# B1: Xyl31A (Ruminiclostridium cellulolyticum H10) (protein)
# chain: MKFLNGYWMSKEGYSLYYPSEAYRIEKSGDVLRIFAPCNQINHRGDTLGGPALTIELSSPAEDVIRISVYHYKGVKKAGPYFELNTPGISPSISEDEDAVWFGSGQIKARIDKKTYNIDYYRGDERLTGSGWRHLAYIKHESGQTYMREQLDLDVGECVYGLGERFTPFVKNGQTVDIWNQDGGTCTEQSYKNIPFYITNRGYGVFVNDPGLVSFEICSEVVSRSQFSVEGESLDYFIIGGSDCKEVISNYTALTGRPAIPPAWSFGLWLSTSFTTNYDEKTVTSFINGMSKRRIPLSVFHFDCFWMKEFNWCDFIWDKDVFPDPKKMLSKLKEKGLHICVWINSYVSQESVLFDEGMQKGYFIHKKNGSVWQWDMWQPGMAIVDFTNPDACNWFSQKLLNLVDMGVDCFKTDFGERIPTEDVVYYDGSDPVKMHNFYTYLYNRTVFDTLKQVGKEAVVFARSATAGSQKFPVHWGGDCTADFSSMAESLRGGLSLGLCGFGFWSHDIGGFEQTATADVYKRWLAFGMLSSHSRLHGSTGYRVPWLYDEEAVDVLRFFANLKCRLMPYIYKTAIQASQQGLPSARAMFVEFPEDPACTTLDRQYMLGDSLLVAPVFSKSGLVEYYLPLGEWYNLLTGEIVTGGSYRKEKHNYMSLPLFVRPGSLLAIGDNEEETVYEYAQGVRLLLTPLADGYEASTSVYEKDGHEALNVTVNRKESDITVIAEGDGKPWSIKLCGITAKGCTGGTIEKEQDGIVFMPGNSTGSYTVRIL
# notes: C-terminal His6 (pET28a); E. coli BL21(DE3)
# B2: Gal42A (Ruminiclostridium cellulolyticum H10) (protein)
# chain: MDKYMPIGMNFPHILHGGDYNPDQWLKAPKILDEDFRLMKLAHCNVMTIGIFSWMALEPEEGKFDFSWLDEIMDKLSKNEMTAILATPSGAKPSWMSQKYPEILRTQADRLKDFHGGRHNHCLTSPIYRKKVSQINRLLAERYARHPALILWHISNEYSGECHCPLCQEAFRSFLMKKYEGDLERLNHEWWTGFWAHRYTDWSQIESPSPRGEHETHGLILDWKRFVSHQTIDFLKNEIKPLRELTPEISVTTNLMGTFPGLEYRELSKEIDVVSWDNYPTWHTSEQPDWKIGIRTSFVHDINRSLKQGKPFMMMESTPSTVNWQKVNKLKRPGMHMLSSLQAVAHGSDTVQYFQWRKSRGSFEKFHGAVVDHVGHENTRVFREVAQVGQVLEKLDEVVGTTVHPKVAIIFDWENRWAMEEAQALARDRIKYEETCVAHYTAFWKRGVSVDIIGARDNLSQYKLVIAPMLYLTHPGVGERIETFVNEGGTFVATYWSGIVNENDLCHLGGFPGPLRAVTGIWSEEIDTMHPDENNSLILSDNSLGLSGTYRVQDFCDLVHAESAEVLARYGEEFYAGRPALTVNRFGKGNAYYMAARTGEDFLEDFYNALMKKLTLSRTLDVELPCGVTSQLRTDGQNRYIFLMNFNHEKQDIQLTKGLTDMFTGEIRQGMLELAPFDVKVLKAKI
# B3: Glu3A (Ruminiclostridium cellulolyticum H10) (protein)
# chain: MQYDQIDKKIDELLSMMTLEEKAGMCHGAGLFRTAGVPRLGIPPLVFSDGPMGIRNEFADDNWNTVGGNTDFVTYLPANTALAATFNRTLAESLGEVLGCEARGRGKDVILAPGVNIIRTPLCGRNYEYFSEDPILTAELAASFIKGVQRFDVAACVKHFAANNQETERLAVSAEVDELTLRELYFPAFEASVRAGVLTVMTAYNRLNGTFCSHSRQLITEILREEWGFNGVVVSDWGAVHDTESPAIAGLDIEMNVTSNFNEYFFAKPLINAIKDGKIPERMLDDKVRRILRLMFRLNMFSKDRKRGGFNLPQHQQAVLDAAKESFVLLKNDREVLPLNADGIKTVAVIGSNADKKHSSGGDSAAVKALYEVTPLSGIVMRLASGAKVTYYPGCPDETHYKEEFHIPSNADEKTRADIEEKARAADEDYRKIQMRLEDEAIQAAKTADAVIFIGGNGHEQESEGRDRPDMALPYEQDKLLSRVLDANPNTVVVIISGSPVNMSGWIDKAPTVMQGFFSGMHGGTALAAVLFGDENPSGHLPFTIPLKEEETGASALGEYPGGETVCYSEGLFVGYRYHDAFNIPPLFPFGYGLSYTTFSLANESFRRLPCVGTEYEIHVDITNSGNRPGAQSVQLYVEPEKKDGSPIRTLKGFEKTYLNPDETKTITFKLDERTFSEFRPHEGWVFVPGNYTIHIGTSSRELPIAIALAL
# Key:
# SBP2458 = target: T1, SBP2458 (Ruminiclostridium cellulolyticum, UniProt B8I622); assay: isothermal titration calorimetry; type: binding; conditions: 150 mM NaCl, 25 mM HEPES pH 7.0, 20 °C; single-site model
# T1 construct: gene Ccel_2458
# pNP release kinetics = substrate: O=[N+]([O-])c1ccc(O[C@H]2OC[C@@H](O)[C@H](O)[C@H]2O)cc1; assay: pNP release kinetics; type: biochemical, Ruminiclostridium cellulolyticum; conditions: assay as in ref. 19
# purified protein [1] = substrate: O=[N+]([O-])c1ccc(O[C@@H]2O[C@H](CO)[C@H](O)[C@H](O)[C@H]2O)cc1; assay: purified protein; conditions: assay as in ref. 19
# purified protein [2] = substrate: O=[N+]([O-])c1ccc(O[C@@H]2O[C@H](CO)[C@@H](O)[C@H](O)[C@H]2O)cc1; assay: purified protein; conditions: assay as in ref. 19
# T1 sequence (B8I622 entry or part of it): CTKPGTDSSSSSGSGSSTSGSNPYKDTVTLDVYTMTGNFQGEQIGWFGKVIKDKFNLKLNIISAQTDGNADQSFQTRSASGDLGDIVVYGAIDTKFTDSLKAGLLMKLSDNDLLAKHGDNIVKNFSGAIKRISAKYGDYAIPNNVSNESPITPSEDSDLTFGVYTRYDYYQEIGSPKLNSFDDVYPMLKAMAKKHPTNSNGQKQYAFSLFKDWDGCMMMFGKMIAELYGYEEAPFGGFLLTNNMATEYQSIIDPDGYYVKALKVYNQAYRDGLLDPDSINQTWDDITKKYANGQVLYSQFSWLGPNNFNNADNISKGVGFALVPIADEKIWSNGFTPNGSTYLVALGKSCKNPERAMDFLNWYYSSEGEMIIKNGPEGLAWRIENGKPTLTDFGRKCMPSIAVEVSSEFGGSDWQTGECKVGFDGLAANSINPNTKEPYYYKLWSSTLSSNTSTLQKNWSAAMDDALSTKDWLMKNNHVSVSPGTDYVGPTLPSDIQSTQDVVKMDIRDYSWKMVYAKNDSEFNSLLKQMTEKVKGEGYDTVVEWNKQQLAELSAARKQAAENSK
molecule,measurement,setting,value
OC[C@H]1OC(O)[C@H](O)[C@@H](O)[C@@H]1O[C@@H]1O[C@H](CO[C@H]2OC[C@@H](O)[C@H](O)[C@H]2O)[C@@H](O[C@@H]2O[C@H](CO[C@H]3OC[C@@H](O)[C@H](O)[C@H]3O)[C@@H](O[C@@H]3O[C@H](CO[C@H]4OC[C@@H](O)[C@H](O)[C@H]4O)[C@@H](O)[C@H](O)[C@H]3O)[C@H](O)[C@H]2O)[C@H](O)[C@H]1O (stereo partly shown) [XXXG],Kd,SBP2458,3.65 ± 1.1 nM
B1,Km,pNP release kinetics,1290 ± 150 µM
same,kcat,pNP release kinetics,12 ± 1.2 μmol product per μmol enzyme × min^−1
same,kcat/Km,pNP release kinetics,155 M⁻¹ s⁻¹
B2,Km,purified protein [1],1560 ± 300 µM
same,kcat,purified protein [1],"4,800 ± 320 μmol product per μmol enzyme × min^−1"
same,kcat/Km,purified protein [1],51300 M⁻¹ s⁻¹
B3,Km,purified protein [2],44600 ± 19000 µM
same,kcat,purified protein [2],"1,350 ± 164 μmol product per μmol enzyme × min^−1"
same,kcat/Km,purified protein [2],500 M⁻¹ s⁻¹
